By Kd is commonly meant a measure of binding affinity in units of concentration. A higher Kd goes with lower affinity. The koff is the first-order rate constant of dissociation. A low value points to a long-lived complex. By kon is commonly meant the rate constant with which the complex forms. Higher therefore signals faster complex formation.

T1: 4Ig human B7-H3 (human, UniProt Q5ZPR3 29-466, limits assumed)
T1 construct: Soluble analyte in SPR; also called 4Ig-B7H3; 4Ig B7H3
T1 sequence: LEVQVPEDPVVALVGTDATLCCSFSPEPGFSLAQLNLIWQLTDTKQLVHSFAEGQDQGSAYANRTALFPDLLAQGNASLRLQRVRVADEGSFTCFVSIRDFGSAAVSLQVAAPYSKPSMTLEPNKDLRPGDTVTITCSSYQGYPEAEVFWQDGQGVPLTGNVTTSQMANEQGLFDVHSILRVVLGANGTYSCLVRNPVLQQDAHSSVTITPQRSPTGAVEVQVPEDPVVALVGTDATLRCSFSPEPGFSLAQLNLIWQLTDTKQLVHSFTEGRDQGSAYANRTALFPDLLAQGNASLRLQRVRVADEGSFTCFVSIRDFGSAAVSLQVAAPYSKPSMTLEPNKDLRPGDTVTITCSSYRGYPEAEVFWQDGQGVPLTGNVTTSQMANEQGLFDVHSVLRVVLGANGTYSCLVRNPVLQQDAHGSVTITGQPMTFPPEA

B1: L3H4 (antibody, human IgG1, kappa, V domains shown)
VH: QVQLVQSGAEVKKPGASVKVSCKASGYTFTNYDINWVRQATGQGLEWIGWIFPGDGSTQYNEKFQGRVTMTTNTSISTAYMELSSLRSEDTAVYFCARQTTATWFAYWGQGTLVTVSS
VL: EIVMTQSPDFQSVTPKEKVTLTCRASQSISDYLHWYQQKPDQSPKLLIKYASQSISGVPSRFSGSGSGSDFTLTINSLEAEDAGVYYCQNGHSFPLTFGQGTKLEIKR
notes: Humanized IgG1, HEK293; chains tied by the L/H names; also called YB8 L3 + YB8 H4
B2: L4H4 (antibody, human IgG1, kappa, V domains shown)
VH: QVQLVQSGAEVKKPGASVKVSCKASGYTFTNYDINWVRQATGQGLEWIGWIFPGDGSTQYNEKFQGRVTMTTNTSISTAYMELSSLRSEDTAVYFCARQTTATWFAYWGQGTLVTVSS
VL: EIVMTQSPDFQSVTPKEKVTLTCRASQSISDYLHWYQQKPDQSPKLLIKYASQSISGIPSRFSGSGSGTDFTLTINSVEAEDAGVYYCQNGHSFPLTFGQGTKLEIKR
notes: Humanized IgG1, HEK293; chains tied by the L/H names; also called YB8 L4 + YB8 H4
B3: L4H2 (antibody, human IgG1, kappa, V domains shown)
VH: QVQLQQSGAEVKKPGASVKVSCKASGYTFTNYDINWVRQATGQGLEWIGWIFPGDGSTQYNEKFKGRATLTRNTSISTAYMELSSLRSEDTAVYYCARQTTATWFAYWGQGTLVTVSS
VL: EIVMTQSPDFQSVTPKEKVTLTCRASQSISDYLHWYQQKPDQSPKLLIKYASQSISGIPSRFSGSGSGTDFTLTINSVEAEDAGVYYCQNGHSFPLTFGQGTKLEIKR
notes: Humanized IgG1, HEK293; chains tied by the L/H names; also called YB8 L4 + YB8 H2
B4: L4H6 (antibody, human IgG1, kappa, V domains shown)
VH: QVQLQQSGAEVKKPGASVKLSCKASGYTFTNYDINWVRQATGQGLEWIGWIFPGDGSTQYAQKFQGRATLTTNTSISTAYMELSSLRSEDTAVYFCARQTTATWFAYWGQGTLVTVSS
VL: EIVMTQSPDFQSVTPKEKVTLTCRASQSISDYLHWYQQKPDQSPKLLIKYASQSISGIPSRFSGSGSGTDFTLTINSVEAEDAGVYYCQNGHSFPLTFGQGTKLEIKR
notes: Humanized IgG1, HEK293; chains tied by the L/H names; also called YB8 L4 + YB8 H6
B5: L4H5 (antibody, human IgG1, kappa, V domains shown)
VH: QVQLVQSGAEVKKPGASVKVSCKASGYTFTNYDINWVRQATGQGLEWMGWIFPGDGSTQYNEKFQGRVTMTTNTSISTAYMELSSLRSEDTAVYYCARQTTATWFAYWGQGTLVTVSS
VL: EIVMTQSPDFQSVTPKEKVTLTCRASQSISDYLHWYQQKPDQSPKLLIKYASQSISGIPSRFSGSGSGTDFTLTINSVEAEDAGVYYCQNGHSFPLTFGQGTKLEIKR
notes: Humanized IgG1, HEK293; chains tied by the L/H names; also called YB8 L4 + YB8 H5
B6: L3H5 (antibody, human IgG1, kappa, V domains shown)
VH: QVQLVQSGAEVKKPGASVKVSCKASGYTFTNYDINWVRQATGQGLEWMGWIFPGDGSTQYNEKFQGRVTMTTNTSISTAYMELSSLRSEDTAVYYCARQTTATWFAYWGQGTLVTVSS
VL: EIVMTQSPDFQSVTPKEKVTLTCRASQSISDYLHWYQQKPDQSPKLLIKYASQSISGVPSRFSGSGSGSDFTLTINSLEAEDAGVYYCQNGHSFPLTFGQGTKLEIKR
notes: Humanized IgG1, HEK293; chains tied by the L/H names; also called YB8 L3 + YB8 H5
B7: L4H1 (antibody, human IgG1, kappa, V domains shown)
VH: QVQLVQSGAEVKKPGASVKVSCKASGYTFTNYDINWVRQATGQGLEWIGWIFPGDGSTQYNEKFQGRVTLTTNTSISTAYMELSSLRSEDTAVYYCARQTTATWFAYWGQGTLVTVSS
VL: EIVMTQSPDFQSVTPKEKVTLTCRASQSISDYLHWYQQKPDQSPKLLIKYASQSISGIPSRFSGSGSGTDFTLTINSVEAEDAGVYYCQNGHSFPLTFGQGTKLEIKR
notes: Humanized IgG1, HEK293; chains tied by the L/H names; also called YB8 L4 + YB8 H1
B8: L3H6 (antibody, human IgG1, kappa, V domains shown)
VH: QVQLQQSGAEVKKPGASVKLSCKASGYTFTNYDINWVRQATGQGLEWIGWIFPGDGSTQYAQKFQGRATLTTNTSISTAYMELSSLRSEDTAVYFCARQTTATWFAYWGQGTLVTVSS
VL: EIVMTQSPDFQSVTPKEKVTLTCRASQSISDYLHWYQQKPDQSPKLLIKYASQSISGVPSRFSGSGSGSDFTLTINSLEAEDAGVYYCQNGHSFPLTFGQGTKLEIKR
notes: Humanized IgG1, HEK293; chains tied by the L/H names; also called YB8 L3 + YB8 H6
B9: L4H3 (antibody, human IgG1, kappa, V domains shown)
VH: QVQLVQSGAEVKKPGASVKVSCKASGYTFTNYDINWVRQATGQGLEWMGWIFPGDGSTQYNEKFKGRVTLTRNTSISTAYMELSSLRSEDTAVYFCARQTTATWFAYWGQGTLVTVSS
VL: EIVMTQSPDFQSVTPKEKVTLTCRASQSISDYLHWYQQKPDQSPKLLIKYASQSISGIPSRFSGSGSGTDFTLTINSVEAEDAGVYYCQNGHSFPLTFGQGTKLEIKR
notes: Humanized IgG1, HEK293; chains tied by the L/H names; also called YB8 L4 + YB8 H3

In this assay the target is T1, 4Ig human B7-H3. In words: SPR, Carterra LSA; antibody captured on anti-human Fc lawn, 4Ig human B7-H3 as analyte. The protocol: Chimeric and humanized antibodies were generated using CDR grafting methods using closely homologous human germline sequences. Six different humanized VH and four humanized VL sequences were combined to generate 24 different humanized IgG1 antibodies. The antibodies were expressed in HEK293 cells and purified using Protein A resin. Antibodies were buffer exchanged into PBS and quantified by OD280 and titer was calculated. Sample purity and aggregation status was determined by analytical Size Exclusion Chromatography (SEC-HPLC), which separates molecules based on molecular mass and hydrodynamic volume. Area % of each peak is calculated based on total area of the peaks. Peak symmetry is calculated to determine the peak fronting (<1) or tailing (>1). A column of 300A pore size was used for detection at 280 nm and PBS as the running buffer. Surface plasmon resonance studies to assess binding affinities were carried out on a Carterra LSA instrument. An anti-human Fc antibody “lawn” was prepared on a HC30M chip by amine coupling. The chip was activated with equal volume of 100 mM MES pH 5.5, 100 mM S-NHS and 400 mM EDC. The anti-human IgG Fc antibody was immobilized. The chip was deactivated with 1 M ethanolamine pH 8.5. Antibodies were diluted and printed onto the anti-human Fc lawn. An 8-point series of 4Ig human B7-H3 was prepared.
The characterization data, including expression titers (mg of purified protein per L of culture), purity (% monomer peak by analytical SEC-HPLC) and affinity measurement by SPR (ka, kd and KD) are summarized in Table 1 and FIG. 1-4.
On to B1, for which binding was put at a Kd of 8.4 nM, the koff was 0.00033 s⁻¹ and the kon worked out at 40000 M⁻¹ s⁻¹.

Take B2: the Kd was found to be 11 nM, the koff came to 0.00036 s⁻¹ and the on-rate constant (kon) amounted to 34000 M⁻¹ s⁻¹.

B3 showed a Kd of 11 nM, a koff of 0.00039 s⁻¹ and a kon of 36000 M⁻¹ s⁻¹.

Molecule B4 showed a Kd of 9.6 nM, a koff of 0.00042 s⁻¹ and a kon of 43000 M⁻¹ s⁻¹.

B5 displayed a Kd of 9.3 nM, a dissociation rate constant (koff) of 0.0004 s⁻¹ and a kon of 43000 M⁻¹ s⁻¹.

In turn, B6 gave a Kd of 9.2 nM, a koff of 0.00035 s⁻¹ and a kon of 38000 M⁻¹ s⁻¹.

B7 gave a Kd of 23 nM, a koff of 0.00055 s⁻¹ and a kon of 24000 M⁻¹ s⁻¹.

Molecule B8 returned an equilibrium dissociation constant (Kd) of 20 nM, a koff of 0.0005 s⁻¹ and a kon of 25000 M⁻¹ s⁻¹.

Take B9: the Kd was 13 nM, the koff stood at 0.00039 s⁻¹ and the kon is 31000 M⁻¹ s⁻¹.

The record behind these values is patent publication US20230312721A1 (published 2023).
